These results are taken from publication PMC5483951.

This assay has as its target hnRNP F/H (human (endogenous in 293)). In words: co-IP; extracts of 293 cells expressing FLAG-SRSF10, RS1-FLAG, RS2-FLAG or RS1-ΔΔ-FLAG, lysed in NET-2 buffer (50 mM Tris-HCl pH 7.4, 150 mM NaCl, 0.05% NP-40), treated with RNase A; anti-hnRNP F, H or K antibodies on protein G magnetic beads, overnight at 4°C; blot with anti-FLAG; cells treated or not with oxaliplatin.

Sequence of FLAG-SRSF10 (O75494 whole entry): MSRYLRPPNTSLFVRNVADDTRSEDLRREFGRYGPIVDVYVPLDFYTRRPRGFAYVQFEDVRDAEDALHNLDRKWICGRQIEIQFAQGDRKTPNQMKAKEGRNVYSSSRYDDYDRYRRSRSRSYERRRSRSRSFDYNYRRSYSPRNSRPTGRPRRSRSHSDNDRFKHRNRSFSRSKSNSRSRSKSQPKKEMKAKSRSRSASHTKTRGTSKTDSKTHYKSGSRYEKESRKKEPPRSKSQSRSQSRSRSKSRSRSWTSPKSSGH

In turn, “FLAG-SRSF10 (from UniProt O75494 1-262) (natural protein)” showed a percent of total SRSF10 associated of 0.5 to 1%.
